Measurements as given in US8889130B2, “Treatment of osteoarthritis and pain” (Abbvie Inc., priority 2011, dated 2014).

Tests used:
male DBA-1 mice = experiment: Collagen-induced arthritis mouse model (rheumatoid arthritis); assay type: in vivo; details: therapeutic mode; 1-3 mg/kg intraperitoneally every other day after disease onset
Experimental: The therapeutic effects of anti-IL-1α, anti-IL-1β, combined anti-IL-1α/anti-IL-1β, and murine IL-1α/β DVD4-Ig, were evaluated in a collagen-induced arthritis mouse model well known in the art. Briefly, male DBA-1 mice were immunized with bovine type II collagen in CFA at the base of the tail. The mice were boosted with Zymosan intraperitoneally (i.p) at day 21. After disease onset at day 24-27, mice were selected and divided into separate groups of 10 mice each. […] To neutralize IL-1, mice were injected every other day with 1-3 mg/kg of anti-IL-1α mAb, anti-IL-1βmAb, combination of anti-IL-1α and anti-IL-1β mAbs, or murine IL-1α/β DVD4-Ig intraperitoneally. Mice were carefully examined three times a week for the visual appearance of arthritis in peripheral joints, and scores for disease activity determined.

[1] = tested on: zymosan-induced IL-6 production; experiment: Zymosan-induced IL-6 production in joint instability model study; assay type: in vivo, mouse; details: day 21 of JIM; 50 mg/kg zymosan ip, serum 4 hours later; mAbs 6 mg/kg each; DVD-Ig 6 or 12 mg/kg
Experimental: As a pharmacodynamic readout to determine if anti-IL-1α and anti-IL-1β monoclonal antibodies as well as mIL-1α/β DVD-Ig binding protein were functional and capable of neutralizing IL-1α and IL-1β in vivo, zymosan-induced (IL-1α and IL-1β dependent) production of interleukin 6 (IL-6) was measured in a joint instability model study of OA.
Briefly, on day 21 in the model, zymosan was suspended in PBS vehicle and placed in boiling water for half an hour, then allowed to cool before using. The mice were then injected ip with 50 mg/kg zymosan in suspension (mixed well before injection) in 0.5 ml PBS. The mice were then bled 4 hours after zymosan injection. Serum was collected for IL-6 measurements.

Male SV129 mice = experiment: Destabilization of medial meniscus (DMM) model of osteoarthritis, cartilage degeneration (Chambers scores); assay type: in vivo, mouse; details: for mean sum Chambers scores and mean maximum Chambers scores (cartilage degeneration): Example 3.3.6 (FIG. 7)
Excerpt: (§1) Male SV129 mice weighing approximately 30 grams, housed 5/cage, were anesthetized on Day 0 with ketamine/xylazine cocktail, administered intraperitoneally (ip), and then the medial collateral ligament was exposed by blunt dissection, and transected to reflect the meniscus toward the femur. The joint space was closed with 8-0 vicryl suture. The skin was closed with wound glue. For sham surgeries, a vertical skin incision was made over the medial aspect of the knee and the joint capsule was opened. The capsule was closed with 8-0 vicryl suture and the skin was closed with wound glue. Groups of animals were then treated with intraperitoneal (ip) injections of antibody or vehicle according to the study design table below. Two sex-matched, age-matched, and strain-matched naïve mice were also included in the study. Animals were euthanized after 8 weeks of treatment, and knee joints were harvested in 10% neutral buffered formalin.
Formalin-fixed samples were decalcified, and specimens were sectioned in the frontal plane into 15 step sections each. Each section was approximately 6 μm thick, and step sections were separated by 70 μm. All slides were stained with toluidine blue (T. Blue). Slides were assessed according to the Chambers method (Chambers et al. (2001) Arthritis Rheum 44:1455-65) for cartilage degeneration (see below) by a board-certified veterinary pathologist. Each of the four cartilage surfaces, the medial femoral condyle (MFC), the medial tibial plateau (MTP), the lateral femoral condyle (LFC), and the lateral tibial plateau (LTP), was scored from 0-6 according to the scale in the table below.
as §1, with “8-0 vicryl suture, and the” for “8-0 vicryl suture and the”, “injections of anti-mIL-1α monoclonal antibody, anti-mIL-1β (alone or in combination), mIL-1α/βDVD-Ig binding protein, or vehicle” for “injections of antibody or vehicle”, “design table below (Table 24). Animals were” for “design table below. Two sex-matched, age-matched, and strain-matched naïve mice were also included in the study. Animals were”, “weeks of treatment and knee” for “weeks of treatment, and knee”
Male SV129 mice weighing approximately 30 grams had the medial collateral ligament exposed by blunt dissection, and transected to reflect the meniscus toward the femur. The joint space was closed with 8-0 vicryl suture. The skin was closed with wound glue. For sham surgeries, a vertical skin incision was made over the medial aspect of the knee and the joint capsule was opened. The capsule was closed with 8-0 vicryl suture, and the skin was closed with wound glue. Groups of animals were then treated per os (po) or via intraperitoneal (ip) injections of vehicle or treatments according to the study design table below. Three sex-matched, age-matched, and strain-matched naïve mice were also included in the study. Animals were euthanized after 4 weeks of treatment, and knee joints were harvested in 10% neutral buffered formalin.

male Swiss Webster mice = experiment: Joint instability model (JIM) of osteoarthritis, cartilage degeneration histology; assay type: in vivo, mouse
Experimental: The design of study of the in vivo activity of a mIL-1α/β DVD-Ig molecule in the joint instability model (JIM) of osteoarthritis in mice is shown in Table 19. All groups contained 25 mice (n=25), weighing approximately 30 grams (BW=30 g). The study was terminated after 21 days. Two and a half month old, male Swiss Webster mice (25/group/time point), housed 5/cage, were anesthetized with isoflurane anesthesia. Anterior cruciate ligament (ACL) trauma was administered on the right and left knees on day 0 in an attempt to induce OA lesions. Intraperitoneal (ip) treatments with IL-1 inhibitory antibodies IL-1α (9H10) and IL-1β (10G11), alone and in combination, were initiated the day of ACL trauma and continued every 4th day (q4d) for 20 days. The vehicle for the non-treatment control was PBS. Right and left knees were harvested on day 21, and histopathologic alterations were scored and characterized. Data were analyzed using only joints that had proliferative responses indicative of successful instability induction. The proliferative response/instability was scored 0-3, and only unstable joints (scores of 1, 2, or 3) were used in the final analysis. Medial and lateral femoral and tibial cartilage degeneration was scored for severity of cartilage degeneration on a scale 0-5. Four days after the last antibody dose, blood was drawn from all animals from each group for serum harvest. Body weights were recorded weekly. […]
Following 2-3 days in a decalcifying fixative (Surgipath Decalifier, Surgipath Medical Ind., Inc., Richmond Va.), both knee joints were trimmed of extraneous tissue, embedded in the frontal plane and sectioned. […] Slides were examined by a board-certified veterinary pathologist blinded to study group designation, and were scored according to the method below. […]
Medial and lateral femoral and tibial cartilage degeneration were scored for severity of cartilage degeneration using the following system: Depth/extent of chondrocyte and proteoglycan loss with fibrillation: […]
The design of this study was similar to that described above in Example 3.3.1. […] Body weights were recorded weekly. […]

B1: mIL-1α/βDVD-Ig: mouse anti-mouse DVD-Ig, V(anti-mIL-1β 10G11)-linker-V(anti-mIL-1α 9H10)-murine constant region (Cγ2a and Cκ) (antibody)
heavy: EVQLQQSGPELVKPGTSVKMSCKTSGYTFTSYVMHWVKQKPGQGLEWIGYIIPYNDNTKYNEKFKGKATLTSDKSSSTAYMELSSLTSEDSAVYYCARRNEYYGSSFFDYWGQGTTLTVSSAKTTAPSVYPLAPQVILKESGPGILQPSQTLSLTCSFSGFSLSTYGTAVNWIRQPSGKGLEWLAQIGSDDRKLYNPFLKSRITLSEDTSNSQVFLKITSVDTEDSATYYCANGVMEYWGLGTSVTVSSAKTTAPSVYPLAPVCGDTTGSSVTLGCLVKGYFPEPVTLTWNSGSLSSGVHTFPAVLQSDLYTLSSSVTVTSSTWPSQSITCNVAHPASSTKVDKKIEPRGPTIKPCPPCKCPAPNLLGGPSVFIFPPKIKDVLMISLSPIVTCVVVDVSEDDPDVQISWFVNNVEVHTAQTQTHREDYNSTLRVVSALPIQHQDWMSGKEFKCKVNNKDLPAPIERTISKPKGSVRAPQVYVLPPPEEEMTKKQVTLTCMVTDFMPEDIYVEWTNNGKTELNYKNTEPVLDSDGSYFMYSKLRVEKKNWVERNSYSCSVVHEGLHNHHTTKSFSRTPGK
light: DIQMTQSPASLSASVGETVTITCRGSGILHNYLVWYQQKQGKSPQLLVYSAKILADGVPSRFSGSGSGTQYSLKINSLQPEDFGSYYCQHFWSTPFTFGSGTKLEIKRADAAPTVSIFPPSIVMTQTPKFLLVSAGDRVTITCKASQSVNHDVAWYQQMPGQSPKLLIYFASNRYTGVPDRFTGSGYGTDFTFTISTVQAEDLAVYFCQQDYSSPYTFGGGTKLEIKRADAAPTVSIFPPSSEQLTSGGASVVCFLNNFYPKDINVKWKIDGSERQNGVLNSWTDQDSKDSTYSMSSTLTLTKDEYERHNSYTCEATHKTSTSPIVKSFNRNEC
Male DBA-1 mice
  reduction in mean arthritis score compared to control group: 47%
[1]
  zymosan-induced IL-6 production: significantly neutralized zymosan-induced IL-6 production
Male SV129 mice; Example 3.3.5 (FIG. 6), 8 weeks of treatment ip, 6 mg/kg
  cartilage degeneration (total sum score): significantly reduced cartilage degeneration
Male SV129 mice; 8 weeks, DVD-Ig at 1.5 mg/kg (excepted from the significant reduction)
  mean sum Chambers scores and mean maximum Chambers scores (cartilage degeneration): except for IL-1α/β DVD at 1.5 mg/kg
Male SV129 mice; 8 weeks, DVD-Ig at 3 and 6 mg/kg
  mean sum Chambers scores and mean maximum Chambers scores (cartilage degeneration): significantly reduced
Male SV129 mice; Example 3.3.6, 8 weeks, DVD-Ig 1.5, 3, 6 mg/kg
  dose effect for mean sum Chambers scores: statistically significant dose effect
Male Swiss Webster mice; 3 mg/kg DVD-Ig binding protein
  cartilage degeneration: had not effect on cartilage degeneration
Male Swiss Webster mice; Example 3.3.2 (FIG. 3), DVD-Ig 6 or 12 mg/kg ip three times weekly, mAbs 6 mg/kg each Q4D, day 21
  progression of osteoarthritis (cartilage degeneration scores, histopathological parameters): significantly inhibited the progression of osteoarthritis
